According to patent US20250136717A1 (BYONDIS B V, published 2025):

Legend:
[1] = molecular target: T1, Human Coagulation Factor III/Tissue Factor Protein, His Tag, Cat. No. TF3-H52H5 (human, UniProt P13726 33-251); test: BLI, TF signal over Protein A signal
T1 construct: immobilized on Ni-NTA biosensor tips
Excerpt: (§1) To correct for differences in concentration between the analyte stocks, Protein A binding was estimated for the same samples.

[2] = molecular target: T2, Protein A (Protein A sensor tips, Forte Bio, 18-5012) (UniProt P38507 37-327); test: BLI, Protein A tips
T2 construct: used to correct for the concentration of the antibody samples
Excerpt: as §1

[3] = molecular target: T1, Human Coagulation Factor III/Tissue …; test: BLI, TF on Ni-NTA tips
Excerpt: as §1

T1 sequence (P13726 33-251 limits assumed): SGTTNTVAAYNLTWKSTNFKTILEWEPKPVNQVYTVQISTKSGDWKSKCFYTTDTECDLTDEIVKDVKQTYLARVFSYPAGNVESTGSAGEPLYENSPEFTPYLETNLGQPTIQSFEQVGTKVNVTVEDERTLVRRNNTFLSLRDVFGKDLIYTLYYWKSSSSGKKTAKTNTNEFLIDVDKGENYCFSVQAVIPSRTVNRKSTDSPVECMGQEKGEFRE

B1: S312 (antibody)
heavy: not shown
light: DIQMTQSPPSLSASAGDRVTITCRASQGISSRLAWYQQKPEKAPKSLIYAASSLQSGVPSRFSGSGSGTDFTLTISSLQPEDFATYYCQQYNSYPYTFGQGTKLEIKRTVAAPSVFIFPPSDEQLKSGTASVVCLLNNFYPREAKVQWKVDNALQSGNSQESVTEQDSKDSTYSLSSTLTLSKADYEKHKVYACEVTHQGLSSPVTKSFNRGEC
notes: also called Anti-TF tisotumab (TF-011) (naked); parent antibody tisotumab
Question: Which results are given for B1?
Answer: TF/Protein A * 1000 [1]: 641; Protein A binding after 10 s of association [2]: 1.75 nm; TF binding after 10 s of association [3]: 1.12 nm
